Substrate in data set [1]: OC[C@H]1O[C@@H]2O[C@H]3[C@H](O)[C@@H](O)[C@@H](O[C@H]4[C@H](O)[C@@H](O)[C@@H](O[C@H]5[C@H](O)[C@@H](O)[C@@H](O[C@H]6[C@H](O)[C@@H](O)[C@@H](O[C@H]7[C@H](O)[C@@H](O)[C@@H](O[C@H]1[C@H](O)[C@H]2O)O[C@@H]7CO)O[C@@H]6CO)O[C@@H]5CO)O[C@@H]4CO)O[C@@H]3CO
The data set can be described thus: DNSA reducing-sugar assay. The following applies: 100 mM sodium phosphate pH 7.0, 80°C, dimeric mutant. The format is biochemical, Geobacillus thermoleovorans. The text has this:
(§1) DNSA reducing-sugar assay on dimeric Gt-Mamy

Substrate in data set [2]: OC[C@H]1O[C@@H]2O[C@H]3[C@H](O)[C@@H](O)[C@@H](O[C@H]4[C@H](O)[C@@H](O)[C@@H](O[C@H]5[C@H](O)[C@@H](O)[C@@H](O[C@H]6[C@H](O)[C@@H](O)[C@@H](O[C@H]7[C@H](O)[C@@H](O)[C@@H](O[C@H]8[C@H](O)[C@@H](O)[C@@H](O[C@H]1[C@H](O)[C@H]2O)O[C@@H]8CO)O[C@@H]7CO)O[C@@H]6CO)O[C@@H]5CO)O[C@@H]4CO)O[C@@H]3CO
Briefly: DNSA reducing-sugar assay. It is filed as biochemical, Geobacillus thermoleovorans. The settings on record: 100 mM sodium phosphate pH 7.0, 80°C, dimeric mutant.
Description: as §1

B1: dimeric Gt-Mamy (Geobacillus thermoleovorans; D109E) (protein)
chain: MRKEAIHHRSTDNFAYAYDSETLHLRLQTKKHDVDHVELLFGDPYEWHDGAWQFQTMPMRKTGSDGLFDYWFAEVKPPYRRLRYGFVLRAGDEKLVYTEKGFYHEAPSEDTAYYFCFPFLHRVDLFQAPDWVKDTVWYQIFPERFANGNPAISPKGARPWGSEDPTPTSFFGGDLQGIIDHLDYLADLGITGIYLTPIFRAPSNHKYDTADYFEIDPHFGDKETLKTLVKRCHEKGIRVMLDAVFNHCGYEFAPFQDVLKNGAASRYKDWFHIREFPLQTEPRPNYDTFAFVPQMPKLNTAHPEVKRYLLDVATYWIREFDIDGWRLDVANEIDHEFWREFRQAVKALKPDVYILGEIWHDAMPWLRGDQFDAVMNYPFTDGALRFFAKEEISARQFADIMVRLLHSYPKHVNEAAFNLLGSHDTPRLLTICGDDVRKAKLLFLFQLTFTGSPCIYYGDEIGMTGGNDPECRKCMVWDPEKQNKELYEHVKQLIALRRQYRALRRGDVAFLAADDEANHLVYEKTDGNETVMIIINRSNEAAEIPMPIDARGKWLVNLLTGERFAAEAETLCVSLPPYGFVLYAVESW
notes: full length 588 aa, pCOLD I (Ni-NTA purified, tag kept), E. coli BL21(DE3); homodimer 145 kDa separated by Sephacryl S-200
The Km is the concentration of substrate that gives half-maximal velocity. For B1, the Km in data set [1] came to 0.21 mg/mL; in data set [2], 0.60 mg/mL.

Source of the values: PMC3777949, “Dimerization Mediates Thermo-Adaptation, Substrate Affinity and Transglycosylation in a Highly Thermostable Maltogenic Amylase of Geobacillus thermoleovorans” (PLoS ONE, 2013).
